Measurements as given in US20120148586A1 (published 2012).

B1: peptide of GAC-9 (not tethered to an antibody) (peptide)
peptide: HXEGTFTSDVSSYLEGQAAKEFIAWLVKXR
modifications: Aib at position 2 and Aib before the C-terminal R; linking residue K26 (so in the source)

Target: GLP-1R (receptor addressed by the glucose-stimulated insulin secretion assay of Table 1)
Assay: cell-based or functional assay

Binder	EC50 (µM), glucose-stimulated insulin secretion (GSIS) assay [µM]
B1	0.094
HXEGTFTSDVSSYLEGQAAKEFIAWLVKGR (Aib at position 2; linking residue K26 (so in the source)) [peptide of GAC-4 (not tethered to an antibody)]	0.041
